Values of other authors in paper PMC10564622.
Where two headings read alike, the source gives them in different places.

Key:
[1] = target: CUL3 NTD with N-terminal deletion (Homo sapiens) (UniProt Q13618)
CUL3 NTD (Homo sapiens) [2] = target: CUL3 NTD (Homo sapiens) (UniProt Q13618)
CUL3 NTD (Homo sapiens) [3] = target: CUL3 NTD (Homo sapiens) (UniProt Q13618); remark: listed apart in the source

Sequence of CUL3 NTD (Homo sapiens) (Q13618 20-381): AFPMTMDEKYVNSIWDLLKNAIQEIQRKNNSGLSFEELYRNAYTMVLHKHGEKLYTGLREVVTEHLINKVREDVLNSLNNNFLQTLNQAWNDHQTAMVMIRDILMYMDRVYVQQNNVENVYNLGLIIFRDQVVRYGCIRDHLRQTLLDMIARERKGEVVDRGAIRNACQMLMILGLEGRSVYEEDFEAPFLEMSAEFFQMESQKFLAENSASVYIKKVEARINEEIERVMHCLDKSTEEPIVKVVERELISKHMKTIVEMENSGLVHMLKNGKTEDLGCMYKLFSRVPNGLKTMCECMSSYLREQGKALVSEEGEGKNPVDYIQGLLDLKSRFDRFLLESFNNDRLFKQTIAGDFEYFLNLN
Sequence of SPOP BTB-3-box (O43791 177-319): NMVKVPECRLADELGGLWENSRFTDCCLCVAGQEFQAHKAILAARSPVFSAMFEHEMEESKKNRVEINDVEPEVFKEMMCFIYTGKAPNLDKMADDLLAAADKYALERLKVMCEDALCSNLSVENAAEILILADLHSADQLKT
Sequence of KLHL3 BTB-BACK (Q9UH77 24-276): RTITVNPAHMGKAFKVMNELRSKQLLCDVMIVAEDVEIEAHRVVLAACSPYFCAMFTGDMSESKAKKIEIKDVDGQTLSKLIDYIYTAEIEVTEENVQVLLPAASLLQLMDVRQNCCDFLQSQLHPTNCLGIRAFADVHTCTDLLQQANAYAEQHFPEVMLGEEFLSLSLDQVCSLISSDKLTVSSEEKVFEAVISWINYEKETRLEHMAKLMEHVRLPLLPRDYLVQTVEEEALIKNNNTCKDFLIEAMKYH
Sequence of SPOP BTB (O43791 170-300): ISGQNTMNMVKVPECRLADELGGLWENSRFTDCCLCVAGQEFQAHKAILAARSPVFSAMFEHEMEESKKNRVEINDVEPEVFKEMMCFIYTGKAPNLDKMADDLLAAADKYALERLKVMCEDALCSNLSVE
Sequence of CUL3 NTD with N-terminal deletion (Homo sapiens) (Q13618 20-381, stated change not applied): as the sequence (Q13618 20-381) above

## KLHL3 BTB-BACK (from UniProt Q9UH77)
[1]
  Kd: 110 nM

## SPOP BTB (from UniProt O43791)
CUL3 NTD (Homo sapiens) [2]
  Kd: 1000 nM

## SPOP BTB-3-box (from UniProt O43791)
CUL3 NTD (Homo sapiens) [3]
  Kd: 17 nM
